Assay results as given in the supplement of paper PMC9233669.
Variants at the floor of the assay were thinned out.

Tests used:
[1] = tested on: biotinyl-Phe-oxazolone; test: self-aminoacylation, catalytic enhancement (BFO) (fold over background); higher = more active; k-Seq, kA / k0A0; sequences stand for … in GGGAAUGGAUCCACAUCUACGAAUUC…UUCACUGCAGACUUGACGAAGCUG
In short: (§1)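 The uncatalyzed rate is the low-activity peak of a bimodal Gaussian fit, and catalytic enhancement is median kA divided by it. The kA values came from pseudo-first-order fits, with 1000 bootstraps, of per-sequence fraction reacted measured by streptavidin capture, triplicate qPCR and Illumina sequencing. Mutagenized RNA pools with a 21-nt variable region (0.43 μM) were reacted with each biotinyl-aminoacyl-oxazolone at 2–1250 μM in 50 μL HEPES/NaCl/KCl/MgCl2/CaCl2 buffer with 5% acetonitrile, pH 6.9–7.0, for 90 minutes at room temperature.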

[2] = tested on: biotinyl-Ile-oxazolone; test: self-aminoacylation, catalytic enhancement (BIO) (fold over background); higher = more active; k-Seq, kA / k0A0; sequences stand for … in GGGAAUGGAUCCACAUCUACGAAUUC…UUCACUGCAGACUUGACGAAGCUG
In short: as §1

[3] = tested on: biotinyl-Met-oxazolone; test: self-aminoacylation, catalytic enhancement (BMO) (fold over background); higher = more active; k-Seq, kA / k0A0; sequences stand for … in GGGAAUGGAUCCACAUCUACGAAUUC…UUCACUGCAGACUUGACGAAGCUG
In short: as §1

[4] = tested on: biotinyl-Val-oxazolone; test: self-aminoacylation, catalytic enhancement (BVO) (fold over background); higher = more active; k-Seq, kA / k0A0; sequences stand for … in GGGAAUGGAUCCACAUCUACGAAUUC…UUCACUGCAGACUUGACGAAGCUG
In short: as §1

[5] = tested on: biotinyl-Leu-oxazolone; test: self-aminoacylation, catalytic enhancement (BLO) (fold over background); higher = more active; k-Seq, kA / k0A0; sequences stand for … in GGGAAUGGAUCCACAUCUACGAAUUC…UUCACUGCAGACUUGACGAAGCUG
In short: as §1

[6] = tested on: biotinyl-Trp-oxazolone; test: self-aminoacylation, catalytic enhancement (BWO) (fold over background); higher = more active; k-Seq, kA / k0A0; sequences stand for … in GGGAAUGGAUCCACAUCUACGAAUUC…UUCACUGCAGACUUGACGAAGCUG
In short: as §1

Sequence	self-aminoacylation [1]	self-aminoacylation [2]	self-aminoacylation [3]	self-aminoacylation [4]	self-aminoacylation [5]	self-aminoacylation [6]
AUUACUCUGGUCUUCGAGUGA [Fam2.1 aminoacylation ribozyme variant]	21.2	3.13	5.11	2.85	5.04	7.1
AUUAGCCAGGUCAUCGAGUGA [Fam2.1 aminoacylation ribozyme variant]	19.1	3.72	5.35	3.8	5.48	6.91
AUUAGCCUGGGCAUCGAGUGA [Fam2.1 aminoacylation ribozyme variant]	57.8	3.66	6.92	3.8	8.51	7.8
AUUAGCCUGGUCAUAGAGUGA [Fam2.1 aminoacylation ribozyme variant]	18.4	2.96	4.83	3.18	5.43	7.07
AUUAGCCUGGUCAUCAAGUGA [Fam2.1 aminoacylation ribozyme variant]	17.9	2.74	4.31	2.45	4.41	4.94
AUUAGCCUGGUCAUCGGGUGA [Fam2.1 aminoacylation ribozyme variant]	94.3	6.74	10.1	7.06	13.3	13.4
AUUAGCCUGGUCAUCGUGUGA [Fam2.1 aminoacylation ribozyme variant]	21.6	1.96	3.38	2.07	3.17	4.27
AUUAGGCUGGUCAUCGAGUGA [Fam2.1 aminoacylation ribozyme variant]	8.97	2.53	3.01	2.48	2.85	4.23
AUUAUACUGGUCAUCGAGUGA [Fam2.1 aminoacylation ribozyme variant]	6.45	2.91	4.91	2.56	5.28	5.99
AUUAUCCUGGACAUCGAGUGA [Fam2.1 aminoacylation ribozyme variant]	34.7	2.88	6.78	3.06	6.24	8.19
AUUAUCCUGGUCAUCCAGUGA [Fam2.1 aminoacylation ribozyme variant]	11.1	2.14	3.69	2.28	4.27	4.26
AUUAUCCUGGUCAUCGAGCGA [Fam2.1 aminoacylation ribozyme variant]	1.01	1.77	1.59	1.41	1.83	1.46
AUUAUCCUGGUCAUCGAGUGA [Fam2.1 aminoacylation ribozyme variant]	20.7	6.23	13	6.5	13.5	14.5
AUUAUCCUGGUCAUCGAGUGC [Fam2.1 aminoacylation ribozyme variant]	1.72	1.29	1.77	1.25	2.16	0.981
AUUAUCCUGGUCAUCGGGUGA [Fam2.1 aminoacylation ribozyme variant]	69.6	7.1	14.1	7.7	17.1	17.4
AUUAUCCUGGUCAUCUAGUGA [Fam2.1 aminoacylation ribozyme variant]	77.8	4.87	10.6	4.98	10.8	13.2
AUUAUCCUGGUCAUUGAGUGA [Fam2.1 aminoacylation ribozyme variant]	67.5	5.33	11.7	5.05	11.7	13.9
AUUAUCCUGGUGAUCGAGUGA [Fam2.1 aminoacylation ribozyme variant]	45.5	3.55	7.34	3.46	7.98	9.06
AUUAUCGUGGUCAUCGAGUGA [Fam2.1 aminoacylation ribozyme variant]	27.7	2.83	4.44	3.25	4.54	5.66
AUUAUCUUGGUCAUCGAGUGA [Fam2.1 aminoacylation ribozyme variant]	12.4	3.54	5.16	3.11	5.73	6.57
AUUAUUCUGGUCAUCGAGUGA [Fam2.1 aminoacylation ribozyme variant]	22.9	3.4	5.31	3.12	6.25	7.13
AUUCAAAUAGGUCAUCGGGUG [Fam2.2 aminoacylation ribozyme variant]	40.1	3.9	5.54	3.38	7.01	5.77
AUUCAACUACGUCAUCGGGUG [Fam2.2 aminoacylation ribozyme variant]	26	3.26	4.57	2.95	6.07	4.72
AUUCAACUAGGUCACCGGGUG [Fam2.2 aminoacylation ribozyme variant]	38.8	4.11	5.89	4.37	6.53	5.05
AUUCAACUAGGUCAUCCGGUG [Fam2.2 aminoacylation ribozyme variant]	45.8	4.6	5.49	3.72	8.12	6.62
AUUCAACUAGGUCAUCGGCUG [Fam2.2 aminoacylation ribozyme variant]	5.81	1.57	1.91	1.75	1.46	1.45
